This is an account of results in patent US20210170043A1, “DC-SIGN ANTIBODY CONJUGATES COMPRISING STING AGONISTS” (NOVARTIS AG, priority 2018, published 2021).

One test concerns the target T1, human L-SIGN (Homo sapiens, UniProt Q9H2X3).
T1 construct: expressed in transfected cells; host or cells: K562, retroviral transduction
T1 sequence (Q9H2X3 1-399): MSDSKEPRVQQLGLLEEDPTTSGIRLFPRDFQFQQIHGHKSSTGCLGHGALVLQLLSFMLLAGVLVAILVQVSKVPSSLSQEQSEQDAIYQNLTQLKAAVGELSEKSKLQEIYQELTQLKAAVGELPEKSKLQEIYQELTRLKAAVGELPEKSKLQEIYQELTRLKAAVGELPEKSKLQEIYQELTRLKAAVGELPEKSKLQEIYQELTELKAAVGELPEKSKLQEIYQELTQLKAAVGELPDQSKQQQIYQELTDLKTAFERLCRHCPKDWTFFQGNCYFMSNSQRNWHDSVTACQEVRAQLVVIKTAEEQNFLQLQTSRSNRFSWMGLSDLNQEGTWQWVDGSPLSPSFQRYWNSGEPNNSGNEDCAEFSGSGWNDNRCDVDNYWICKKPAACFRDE
The test is described as follows: FACS binding to K562 cells expressing human L-SIGN (selectivity). To be noted: FACS MFI. The method, then:
(§1) The affinity of various antibodies and ADCs to DC-SIGN and its species orthologues was determined using FACS. Purified IgGs were titrated to determine EC50 values for binding to cell surface expressed DC-SIGN.
(§2) For this purpose, human DC-SIGN expressing or cynomolgus monkey DC-SIGN expressing stable CHO cell lines or K562 expressing DC-SIGN or K562 expressing L-SIGN cell lines were checked for density and viability using VICELL (Beckman Coulter), and washed once with 4° C. PBS. Cells were stained with DAPI (0.5 ug/mL) diluted in PBS for 30 min on ice. Cells were diluted into 4° C. FACS buffer (PBS, 10 mM EDTA, 2% FBS). 125 μl of cells were seeded (10,000 cells/well) into 96-well v-bottom plates (Nunc cat#442587) and centrifuged for 4 min at 1500 rpm at 4° C. Supernatant was removed. Cells were incubated with a serial dilution of each anti-DC-SIGN antibody in FACS buffer at concentrations ranging across several logs with a top concentration no higher than 50 μg/mL for 60 minutes at 4° C. Following incubation, cells were spun down (1500 rpm, 4 min, 4° C.) and washed two times with FACS buffer. A fluorophore-conjugated anti-hFc gamma-AF-647 (Southern Biotechnology) detection antibody was added at 1:400 and samples were incubated for 1 h on ice in the dark. Following incubation, FACS buffer was added, and the cells were spun down (1500 rpm, 4 min, 4° C.) and washed two times with FACS buffer. After the final wash, cells were resuspended in Fixative Buffer (Biolegend, 420801) and 90 μl of FACS buffer followed by readout on the flow cytometry machine (BD LSRFortessa Cell Analyzer; Cat #647177). Geometric Mean fluorescence intensity (MFI) of live, single cells was calculated in Flowjo 10.4.2 and exported into Graphpad Prism7 for EC50 determination.
Selectivity was assessed by measuring apparent binding affinities to isogenic cell pairs engineered to overexpress DC-SIGN as well as cell lines expressing DC-SIGN paralog L-SIGN.

The target of test [1] is T2, human DC-SIGN (Homo sapiens, UniProt Q9NNX6).
T2 construct: expressed in transfected cells
T2 sequence (Q9NNX6 1-404): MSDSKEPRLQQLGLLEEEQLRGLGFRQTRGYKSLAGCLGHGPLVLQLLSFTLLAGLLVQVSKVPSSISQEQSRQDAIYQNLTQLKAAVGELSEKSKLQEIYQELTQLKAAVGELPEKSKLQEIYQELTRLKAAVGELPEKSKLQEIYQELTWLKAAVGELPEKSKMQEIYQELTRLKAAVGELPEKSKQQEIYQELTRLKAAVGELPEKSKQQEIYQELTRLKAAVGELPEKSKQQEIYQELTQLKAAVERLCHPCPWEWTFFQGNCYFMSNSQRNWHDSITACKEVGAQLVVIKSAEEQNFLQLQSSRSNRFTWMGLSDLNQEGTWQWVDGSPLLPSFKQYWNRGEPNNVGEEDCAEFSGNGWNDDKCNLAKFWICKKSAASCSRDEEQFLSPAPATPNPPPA
The test is described as follows: FACS binding to CHO cells stably expressing human DC-SIGN. Particulars: FACS MFI, average. The method, then:
as §1, §2
Background: In flow cytometry, cells or beads pass a laser one at a time.

The target of test [2] is T2, human DC-SIGN. The experiment in a line: FACS binding to K562 cells expressing human DC-SIGN. To be noted: FACS MFI. The method, then:
as §1, §2

Test [3] concerns cynomolgus monkey DC-SIGN. The test is described as follows: FACS binding to CHO cells stably expressing cynomolgus monkey DC-SIGN. Particulars: FACS MFI, average. The method, then:
as §1, §2
In a similar experiment the antibodies were tested for cross-reactivity using engineered isogenic matched cell line.

cynomolgus monkey DC-SIGN, sequence (as listed by the source): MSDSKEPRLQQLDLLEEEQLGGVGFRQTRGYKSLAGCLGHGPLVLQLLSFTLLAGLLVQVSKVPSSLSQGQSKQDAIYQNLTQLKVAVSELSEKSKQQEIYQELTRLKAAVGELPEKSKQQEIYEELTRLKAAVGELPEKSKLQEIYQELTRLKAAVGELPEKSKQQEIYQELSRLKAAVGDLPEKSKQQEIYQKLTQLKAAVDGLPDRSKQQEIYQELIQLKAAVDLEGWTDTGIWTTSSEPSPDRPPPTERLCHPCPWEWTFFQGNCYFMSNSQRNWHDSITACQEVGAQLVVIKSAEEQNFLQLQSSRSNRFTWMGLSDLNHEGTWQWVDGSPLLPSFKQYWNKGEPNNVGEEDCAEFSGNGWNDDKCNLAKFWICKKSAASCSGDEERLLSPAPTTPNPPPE

B1: 958N05 S93A: optimization of sequences by removal of post-translational modifications, non-preferred sites; substitutions made by site directed mutagenesis (antibody)
heavy: QVTLRESGPALVKPTQTLTLTCTFSGFSLSTSGISVSWIRQPPGKALEWLALIDWDDDKYYSTSLKTRLTISKDTSKNQVVLTMTNMDPVDTATYYCARTPSGSYGRYFDLWGRGTLVTVSSASTKGPSVFPLAPSSKSTSGGTAALGCLVKDYFPCPVTVSWNSGALTSGVHTFPAVLQSSGLYSLSSVVTVPSSSLGTQTYICNVNHKPSNTKVDKRVEPKSCDKTHTCPPCPAPELLGGPSVFLFPPKPKDTLMISRTPEVTCVVVAVSHEDPEVKFNWYVDGVEVHNAKTKPREEQYNSTYRVVSVLTVLHQDWLNGKEYKCKVSNKALAAPIEKTISKAKGQPREPQVYTLPPSREEMTKNQVSLTCLVKGFYPCDIAVEWESNGQPENNYKTTPPVLDSDGSFFLYSKLTVDKSRWQQGNVFSCSVMHEALHNHYTQKSLSLSPGK
light: DIQLTQSPSTLSASVGDRVTITCRASQSISNWLAWYQQKPGKAPKLLIYKASSLESGVPSRFTGSGSGTEFTLTISSLQPDDFATYYCQQYNAYWTFGQGTKVEIKRTVAAPSVFIFPPSDEQLKSGTASVVCLLNNFYPREAKVQWKVDNALQSGNSQESVTEQDSKDSTYSLSSTLTLSKADYEKHKVYACEVTHQGLSSPVTKSFNRGEC
For B1, the “human L-SIGN K562 EC50” value in the test with human L-SIGN was >10 mg/L. In addition, the “human DC-SIGN CHO EC50 (ug/mL) ave.” value with human DC-SIGN [1] came out at 0.13 µg/mL. Moreover, the “human DC-SIGN K562 EC50” value with human DC-SIGN [2] is 0.060 mg/L. Besides, the “cyno DC-SIGN CHO EC50 (ug/mL) ave.” value in test [3] was found to be 0.16 µg/mL.

B2: 960K03 N92Q: optimization of sequences by removal of post-translational modifications, non-preferred sites; substitutions made by site directed mutagenesis (antibody)
heavy: QVTLRESGPALVKPTQTLTLTCTFSGFSLSTGGMSVSWIRQPPGKALEWLALIDWDDDKYYSTSLKTRLTISKDTSKNQLVLTMTNMDPVDTATYYCARAHSGSYFDFWGQGTLVTVSSASTKGPSVFPLAPSSKSTSGGTAALGCLVKDYFPCPVTVSWNSGALTSGVHTFPAVLQSSGLYSLSSVVTVPSSSLGTQTYICNVNHKPSNTKVDKRVEPKSCDKTHTCPPCPAPELLGGPSVFLFPPKPKDTLMISRTPEVTCVVVAVSHEDPEVKFNWYVDGVEVHNAKTKPREEQYNSTYRVVSVLTVLHQDWLNGKEYKCKVSNKALAAPIEKTISKAKGQPREPQVYTLPPSREEMTKNQVSLTCLVKGFYPCDIAVEWESNGQPENNYKTTPPVLDSDGSFFLYSKLTVDKSRWQQGNVFSCSVMHEALHNHYTQKSLSLSPGK
light: DIQMTQSPSTLSASVGDRVTITCRASQRISNWLAWYQQKPGKAPKLLIYKASSLESGVPSRFSGSGSGTEFTLTISSLQPDDFATYYCQQFQSYWTFGQGTKVEIKRTVAAPSVFIFPPSDEQLKSGTASVVCLLNNFYPREAKVQWKVDNALQSGNSQESVTEQDSKDSTYSLSSTLTLSKADYEKHKVYACEVTHQGLSSPVTKSFNRGEC
B2: in the test with human L-SIGN, the “human L-SIGN K562 EC50” value is >10 mg/L. For the same molecule, in the test with human DC-SIGN [1], the “human DC-SIGN CHO EC50 (ug/mL) ave.” value came out at 0.08 µg/mL. For the same molecule, the “human DC-SIGN K562 EC50” value in the test with human DC-SIGN [2] was 0.021 mg/L. Moreover, the “cyno DC-SIGN CHO EC50 (ug/mL) ave.” value in test [3] was 0.04 µg/mL.
